Results reported in paper PMC2694808.
Values joined by “and” are separate entries in the source; they are usually repeats but may differ in a detail not shown here. Equal entries are not always repeated.

Tested on: Hfq
Experiment: EMSA
Conditions: 40 or 100 mM NH4Cl, 10 mM Tris-HCl pH 7.5, 5 mM Mg acetate, 0.1 mM DTT, 37°C (EMSA 10 min; SPR Biacore 2000)

For invE RNA probe (140 nt), the K half was 1.7 nM and 6.2 nM.
